The results in this text go back to article PMC7295030, “Aggregation pathways of human γ D crystallin induced by metal ions revealed by time dependent methods” (PeerJ, 2020).

The data set deals with the molecule itself. Briefly: dynamic light scattering; HγD 50 µM with 1.5 equivalents of CuSO4, 10 mM ammonium acetate pH 7.2, 50 mM NaCl, 37 °C, measured every 1.6 min during 12 h.

B1: Human γD crystallin (natural protein)
chain: GKITLYEDRGFQGRHYECSSDHPNLQPYLSRCNSARVDSGCWMLYEQPNYSGLQYFLRRGDYADHQQWMGLSDSVRSCRLIPHSGSHRIRLYEREDYRGQMIEFTEDCSCLQDRFRFNEIHSLNVLEGSWVLYELSNYRGRQYLLMPGDYRRYQDWGATNARVGSLRRVIDFS
notes: Human γD crystallin (HγD), UniProt P07320; Only the vector pET16b is named; For NMR the protein was 15N-labelled (1H-15N HSQC); also called HγD; human gamma D crystallin; source: E. coli BL21-RIL (plasmid pET16b-HγD), purified (Q-Sepharose, Sephadex 200)
B1: the binding result was “binds”.
